Where no end group is shown, it is not given here. The star is where a group is joined. Biotin = O=C1N[C@H]2[C@H](CS[C@H]2CCCCC(=O)*)N1
Tests used:
[1] = target: 6xHis-tagged WDR5 (24-334) (human, UniProt P61964 24-334); experiment: AlphaScreen or HTRF
[2] = target: recombinant 6xHis-SUMO-WDR5 (22-334) (human, UniProt P61964 22-334); experiment: pull-down

binding result [1]	binding result [2]	Binder
binds	–	Ac-ARTTSQLYDA-NH2 [Peptide acetyl PDPK1 WT 10-mer: Acetyl - ARTTSQLYDA-amidated]
binds	–	Ac-ARTTSQLYDAVPIQS-NH2 [Peptide acetyl PDPK1 WT 15-mer: Acetyl-ARTTSQLYDAVPIQS-amidated]
–	binds	H-ARTTSQLYDAVPIQSSGGYK(Biotin) [Peptide PDPK1 WT: NH2-ARTTSQLYDAVPIQSS-GGY-K(biotin)]
